Data taken from a protein production outcome set (Wang et al. 2014).

Assay: label from the status in PepcDB records

Sequence	protein production
MAERTSDPAANDRFYFRQLLSGRDFAGADPIAQQMRNFAYFIGDRETGEAVVVDPAYAADELAAALEADGMRLAGVLVTHHHPDHVGGSMMGFTLKGVAELLEHRSVPVHVNSHEADWVSQVTGIARSELSAHEHGDTISVGAIDIELLHTPGHTPGSQCFLVDGRLVAGDTLFLEGCGRTDFPGGNVDDMFRSLQALAKLPGDPTVYPGHWYSAEPSAPLEEVKRSNYVYRASNLDQWRMLMGG	failed
MAESKRDYYEVLGVSKDADDAAIKKAYRALAKKYHPDMNPGDAEAEKKFKEASEAYAVLSDAEKRRQYDQFGHAAFEGGAGGAGGFGGFDFNGADFGDIFGDIFGDLFGGGGRRGGRANNGPMKGANIRKSIRITFEEAVFGCKKELEVILKDPCTTCGGTGAKPGTSPETCPKCGGKGQVVYTSQSFFGTVQNVQTCPNCGGSGKVIKEKCTSCSGTGYTSSKKKIEVTIPAGIDNGQSVRIREKGEPGTNGGPRGDLLVEVNVSRHPIFQRQDMHIFSTVPISFAQAALGGDVKIQTVDGAVIYNVKPGTKTDTKVRLKGKGVPSLRNSAVRGDHYVTLVIQTPEKLSAEAKEALRRFDELSGNSLHQNDSNPEKSEKKTKRKGFMDKVKEAFEGED	failed
MAESQALSDDIGFLLSRVGGMVLGAVNKALVPTGLRVRSYSVLVLACEQAEGVNQRGVAATMGLDPSQIVGLVDELEERGLVVRTLDPSDRRNKLIAATEEGRRLRDDAKARVDAAHGRYFEGIPDTVVNQMRDTLQSIAFPTFVE	not failed
MAEVHNQLEIKFRLTDGSDIGPKAFPDATTVSALKETVISEWPREKENGPKTVKEVKLISAGKVLENSKTVKDYRSPVSNLAGAVTTMHVIIQAPVTEKEKKPKGDPKMNKCVCSVM	not failed
MAEWSKAPDSSSGLRKRAWIRPWQREHMTIESVDHETRSMTQRFTVPEFFEGYKMITSTTKVNDSAIGLYSLVDISVEYDKTGPEIKDLDQVQFLVDYINELVLRTGGQLLRRLK	failed
MAFELSPSDLEPLLQGACFFGSGGGGTMISARHLAANFRKGDYYPTDKVRVVDVDEATDGDCVMVAYMGAPDAINQVQWPNGPVEAALAARQRLESQGRKLAYVVAPESGALGFVVASLVAAKLGLAVVDADGAGRAVPSLPMLTYAAAGVPPTPAFLAGESGLCVELGVRMPPPDGQRREDISTVVEQMLRPILTNPQFGQFGGLAMWMMSPAQLGGALPVRGTLSRALKLGRALQDGKVKTAEAMLDFLRRELDIKGKLLFGPATLASSEVSTAGGFDLGKVVLEDGERRCTVLYQNESLLAWDSALSHPLATAPDAISYFVEGEGQHVFSNGDLSGNDHGLDPSVRGRKAAVIALPAAAPLSEGLILQSFADELAQLGYLGPYAPVDAGREGARLEHHHHHH	not failed
MAFIAVHDGLTGLHNRTFLTDHFDTLIKGAHRRRERLAVVQLDLDRFKQINDTLGHAAGDYVLVVTAQRMRDSCRASDLCARLGGDEFVMILNGAGSTEDINMLARRILAHINEPIVFQGTTILPGASGGIAVYPIDADNAQDLLVHADLALYSAKKLGGGNFSFFSEELRRELDYRKQLEHDIKVAISERAFQVYFQPQVSLTDGTISGIEALVRWNHHERGMISPGEFIPVAEKCGFMPEIGRIVIGKAINEAAEWNRAGIAFGRLAVNVSGTELREHDFDAFLFETLEKAGLPPQKLSLEIVESVILDDEKTGIAAKLRHIRAAGIHLELDDFGTGYASLSHVNPNEIDRLKIDRRFVQNIHENGDNSKIVRAITELARGLGISIVAEGAETEAELDSLMAIGCDQVQGYSIAFPMPQDKALEWLTARMPKKAKLRVLQGSLA	failed
MAFLIISLIIMLIGLLRLKINKRSIIGGIFLASGLILSLASLFFELLNLIYLYLPSGDFATLIIAYGILPLIFLLVCGYFIFNSKTMRTKEGKSATAKLSALFGLNLLIAFPALFMLFTFSTKTIPQIIWYILLYILLIDIILCFLFAAYILYSWMSQMIPLQKKIDYIIILGSGVRSEEVPPLLKSRLDKGIEYYQKNPTAKFVVSGGQGADEPVSEAFAMRKYLHSQNIPNHQILFEDKFTTTYENMLFSKRIINEDWSDKEMPPSIIFSTNNYHVLRGSLYAQRVKLKAQGVGGTHSTLFLTYGLNS	failed
MAFNHLPAGVHDALGPLSVMPVTHSLPMAKNHRPDRSSSDTASSPSPGTVLDRLASGPSRASRITHTEHLPPREGRHAVWPDRIRSEVIAAVQAAGIEHPWAHQARAAEHALDGESVVVATGTASGKSLAYLVPALSALLDGSEAPNGRGATALYLAPTKALAADQCRSVKELSQPLGTAVRPAVYDGDTPVEEREWVRQYANYVLTNPDMLHRGILPAHPRWSSFLRALRYVVIDECHTYRGVFGSHVAQVLRRLRRLCARYGASPVFLLASATAAEPSVAASRLTGLRVVEVADDASPRGELVFALWEPPLTELHGEKGAPVRRTATAETADLLTDLTLQGVRSVAFVRSRRGAELIAVIAQERLAEIDRSLARRVAAYRGGYLPEERRALERALHSGELLGLAATTALELGVDVSGLDAVVIAGYPGTRASLWQQAGRAGRSGQGALAILVARDDPLDTFLVHHPEALFDQPVESTVLDPDNPYVLAPHLCAAAEELPLVEEDLALFGPSTADLLPQLEAAKLLRRRTKAWHWTRRERAADLTDIRGEGGRPVQIVEAGTGRLLGTVDAGAAHTTVHEGAVHLHQGRTYLVRELDLEDSVALVEEANPSYSTVARDTTAISVLETDVEVPWGEGRLCYGSVEVTNQVVSFLRRRLITGEVLGETKLDLPPRTLRTRAVWWTVTEDQLDAARITPEILGGALHAAEHASIGMLPLFATCDRWDIGGVSVPLHPDTLLPTVFVYDGHPGGAGFAERAFHTARDWLTATRQAIASCECDAGCPSCIQSPKCGNGNDPLHKRGAVRLLSVLLRGAAEQEKAGLPKEPARAAESSAD	failed
MAGAAQSHAVPGFRRNMVTICAMTATIMQALDTTIANVALPYMQGSLSASQDQINWVLTSYIVAAAIMTAPVGWIANRFGRKRIFIICSAGFTIASVMCGLAQDITQMVVFRLLQGVFGAALVPLSQAVMLDSYALHERAKAMSIWGMGVMMGPIMGPSLGAWLTETYSWHWVFFVNLPFGAITVLGLAMFMDETDKNQELKFDWFGFAALAVGIGAMQLALDRGEQLDWFNSPEIIIESIVSVVGFYYFFAHSFTTERPFIQFAIFKDRNFVGGVVFMTVMGLVLFSTMALSSPFLQNVEGYPIMTAGLLLASRGCGTFVAMMIVGRIMRYIEARTLIATGLSLTCASLYVMTGWTDQTSVSSVVVTSIIQGFGFGLVFVPLSTVAFMTLPGQLRTDGTAMLTLVRNVASSVGISVVIAKLSSGTTTAHAILTEHINPFNNALQMPNVTGMIDLSTTTGKAMMDAIVTMQAQIIAFSHDYAMVMFLTAAAVPMAIIIGSTKAALRKQSEAPADHAAVME	failed
MAGAMRKMAVYLGLVEDDGYDGRGFDPDDDFEPELDPEPERDRRRHEPPHQSHQALHPQRDESVRVVQPPMQRDPVPHSASLPAESVRPARIAPVASITQERQSLEKNAPVIMPKVVSEREPYRITTLHPRTYNEARTIGEHFREGTPVIMNLTEMDDTDAKRLVDFAAGLVFGLHGSIERVTQKVFLLSPANVDVTAEDKARIAEGGFFNQSLEHHHHHH	not failed
MAGDQELELRFDVPLYTLAEASRYLVVPRATLATWADGYERRPANAPAVQGQPIITALPHPTGSHARLPFVGIAEAYVLNAFRRAGVPMQRIRPSLDWLIKNVGPHALASQDLCTDGAEVLWRFAERSGEGSPDDLVVRGLIVPRSGQYVFKEIVEHYLQQISFADDNLASMIRLPQYGDANVVLDPRRGYGQPVFDGSGVRVADVLGPLRAGATFQAVADDYGVTPDQLRDALDAIAA	not failed
MAGGLGKCSKIRHIVRLRQMLRRWRDQARMSSSFSRCVPSDVPSGHVAVYVGSSCRRFVVRATYLNHPVLRNLLVQAEEEFGFVNQGPLVIPCEESVFEESIRFISRSDSTRSRRFTCPDDFQKNCHVVGIRSKLDLWIESRPLLHGVTEKAVW	failed
MAGIRLLPEEPETTPQQQARAAAAVTTTTTDSLASDDDRSIAADSWSIKSEYGSTLDDDQRHADAAEALSSANFRVSSDYSSDKEEPDADGGGQSMLGLQSYWDAAYSDELTNFREHGHAGEVWFGDDVMEIVTSWTKDLCVEISQRNMSVSENDVTTEVNDQADKYLSSWNVLDLGTGNGLLLHQLAKEGFSDLTGTDYSDGAVELAQHLSQRDGFPNIRFMVDDILDTKLEQQFKLVMDKGTLDAIGLHPDGPVKRVMYWDSVSKLVAPGGILVITSCNHTKDELVEEVENFNIRKSNLCRGDGNDANNVLSSGSEAASRIDQPPFEYLSHVRTYPTFMFSGSVGSRVATVAFLRK	failed
